The nature of the series: protease stability score; higher = more stable; yeast display proteolysis, trypsin and chymotrypsin.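 Further: relative to predicted unfolded state with 0 unfolded-like and 1 meaning tenfold more protease.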
As for “SEDEEFAKHASEIMSRILETGNEEETNRMMDPNVRLDWNGQDHVGREDVLRFRKLIIEILGIERIKVELHDVKTVNGRVHTDIIVNINGQEYRLRVFMTKVNGRWHVKFMEFE”, the protease stability score came to 1.7.
With “SEDEEFAKRFFEILVHYHKTGDWEKRMKMADPNTRSDINGVHFHGREDIYRFEDELWREMGIDHVEFHVRDSDIQGDKLHLHTQVIIHVGNKHIELDERMILLKFNGQWVLESLEVK”, the protease stability score is 1.32.
In the case of “SEDEEFARTAVELVSEAWETGDENLEEHLLDPNVKIDIGDKELHGMESSIKYWREIRIHLLHVEIHSVEFFDGRVILDTRFKFDGDFDGKRIERSSTMIWIAHKVDGRWRVHHMENR”, the protease stability score stood at 1.25.
As for “SEDEEFFKKALDLVFEYNRTGDERSMNELADPHVKVDINGVTLHGWEEFSRHLRELRLKTFKLDDLDSQGDKIITKGVFHHHINGRTIDLDVIIFTRKINGRWVLEKVEFK”, the figure is 1.35.
In the case of “SEDEEFLEWTMRLYTKAHATGDEETLTDLMDPNTRLDINGVIWIGREFVRKHHEDLGAKHSRMDLRIRDRDSINGRLIVHTRFRLKIHIGDKDISIEHHTTLYMIKIDGRWHIREIEIR”, the protease stability score amounted to 1.09.
The sequence “SEDEEFMRHKSELYLEMLKTGDEEELERLFDPNVRLHIGDKNQHGREQFSHFFSKLHKELGVDHLSFEHIHLEVVNGRLIIIMRVHLHVGDKVHDREISIDASKVDGQWLVQSVHIHVR” yielded a protease stability score of 0.121.
“SEDEEFSKEATETILRVIHTGDWDMIKDLADPNARIHVGNYNSWGREEVMRVIRELFEVLGIKHLIFTHVEIDVIDGVVHSIIHGYEEVGDKTIETHIDIVSKKIDGRWRLQRIEIHHR” gave a protease stability score of 1.29.
“SEDEEHAEFFNRLLAESLMTGDWRTIANLLDPHVRVRVGDKQHHGREQVIHLLTKLLEDWGLERVHIHLRELRVINGRIHTRNELHVGDKTVDVKVHTRKIDGRWVIEEIEFR” had a protease stability score of 1.16.
As for “SEDEEHAELALRLWEIVEKTGDETEARKMFDPHTRIIIDGRDLIGWSFIRHLMRRFDHVDIDHKREKRREFQGEKVRMDIEVDMEFVVGEKIYRIDFRVNIVLLKVNGKWRIHSLEIK”, the figure is 2.47; as for “SEDEEHAERMLRILIELLLTGNESDFLRYADPNVRTIVGDKTFHGRDEFRTAWEWFLREIRLRHIELKHVEIQGNKVRVHGIWNIEINGRHIRLHVLIEIVVVDGVLRETRFEIR”, 1.47; as for “SEDEEHAREFIKILFELLLTGDFKARLERLDPHTRLDVDGKDVHGMENINDLWLRIVEKYKNIQIHFHIHDVSIIGDKIHLHVHVEINVNGVNLRHEELTIVQKFNGKWIIKERHYI”, 1.38.
Turning to “SEDEEHARKLVEELLHIMITGDFHRIRELADPHARIVVGDKVFHGREMMFRFSRELRVHDHRLRHEEYINGVVHIEGHVDGEINGRRHRTEVRIHIVVIDGRVKTMEIRWD”, the protease stability score came out at 1.35.
“SEDEEHARRFRELWLRIFHTGDWHEFHKLLDPNVRTQVGEFHDIGRESAAEHLELFLKQLGVDHTDITHVELIYIGDKVEVNILLRKEQGDKEYTFRIHIVVRKVNGQWLIKSIHITVE”: the protease stability score amounted to 1.54.
In turn, “SEDEEHARRVLEEMIDARLTGDEDKYETLLDPNVRFHQGEWSFHGMEELSRIVHHEARRIDHHEVRLKELRVVNGRVHSRTLLKLDFNGVEYRLKIELIITKVDGRWLLKEVRVR” came in with a protease stability score of 1.25.
For “SEDEEHDHKLARWILELLHTGDEETFLDLMDPNTRVIIHVGDKRIHNHGREVVKRIQEQLEEDWGVSRVEIHIRRMTIIDGRVRIDGLLEYDGRRHEIHMIFVIINGKIHSEEQHIH”, the protease stability score was 1.46.
Take “SEDEEHLKELSEMLIKNWLTGDEKKWDRLADPHAKLRINVNGRDRRRVGMENVHRALHHLFHELRIKHLRDKDSNLINGVSHIEGESTILVGDKEIDTRIVIHLLIIDGRLEEERIVIE”: the protease stability score was 0.178.
Regarding “SEDEEHSRIFVQLFQRAVETGDEDRMLQLMDPDARVHIGDKTYHGMFQFVRWLHDQLKRFKNIRIEWRLTEIDVFENHIIIKGELRLKAEGVDHIHNVIIYVNKINGRWIVHHMEIR”, the protease stability score came to 1.52.
As for “SEDEEHWRKTINLLIIAIRTGNEDLFWKLLDPNTRFEVDIGDKMIDLHGREKVAEWLHRFIHKIPNLKIHIREIEFNENETRIHGETHFDGKTRTVEIIIELVDGRMKEFIFIVK”, the protease stability score worked out at 2.16.
“SEDEEIAHHVVNLIMKIIRTGDEDNFKQLFDPHTRFTVGDKHHIGRETVIEFFRRWEEFYPNIQLELRLRDVKAYGDKVHVETEVIIRVGDKDLRFETTVYILKYNGRWFLKQEQFR”: the protease stability score turned out to be 0.769.
As to “SEDEEIAKEASEVFSDVLLTGNEDLFKEMIDPNVRVIVDGQDHIGRERALEFLIIWLERRGVEFKRVRVTRHRVIDGRVQMHYEVDSVVNGRRTNDSMELHSDKVNGRWIIRIIKFR”, the protease stability score is 2.38.
“SEDEEIARRYLEFFLHILRTGDFEEMLRLLDPHVRTHVDGREKHGRENVTTFFMRWWEDYGFDHVTLEDFRVHIYGEKIHIKIDGYFHFNGRSVDVKIHVIAKKINGRWLLHEMHFEVR” came in with a protease stability score of 1.26.
For “SEDEEIFRIALHILIYTMKTGDEKMLEENFDPNTKIRVGDKEFVGREELRHWFEHLRPKDFKLRDISTQGEKIRIIGHSIGEVDGREVRYDVEMDLHKVDGRWRMTHERIH” the value was 1.16; for “SEDEEIHRKMFEDILHALRTGDWRELKHNLDPNVRLEVDGREIHGWEEVVKFLHEARVEHIEMRIRHVEFQGEKIISHRHMIFHKDVNGVRVDQRHDFTTIILKVNGRWRYHSIKID”, 1.36; for “SEDEEILREILEETNKALHTGDENHIRHLLDPHVRWHVGDKTIIGRDLLVDILRRMGVKHHEIRLRDMDHVGEKIRLEGELIIRYGDKTETHDVTFVLIKFDGRWHIEEYIHG”, 0.866.
As for “SEDEEIMKDLLELFFEAMKTGDEDTLRHLFDPNARFVIGDKLLHGREEYIRYLQEWRVEIEHFNIRRLELVDGRIHLEGHMHLHVQYGDKHERRTHHLEWEIIKINGRWIFRSVRIN”, the figure is 1.48; as for “SEDEEIMQRLLEELIEALTTGDEDFFTELVDPHARTEFDGKVMHGRERLKYTIELFGVKHVEFRVEVKRISVFDGRILSDTHLELIIDVDGRSVIIRRHTELRVDKVDGRWFNTEHRIE”, 0.183; as for “SEDEEIQKKFWEEFMKALHTGDWHTLEKLLDPHVRYLVGEKHVHGRKKLEMEIRHLGVTNIEMHLHIESEERQGNKIILNGEFRRRINGVEIKTRAILILIKIDGRWVIDTEFIE”, 2.05.
The sequence “SEDEEISERALRHVYKHLKTGDEDNFQKNFDPHVRFEAENVEFHGREASEHLSKRIDVIHRIIIRHHTIYNGVIVIHGEVDGEFNGKRDRDIVTIYYVKVNGQWQIRELKIG” showed a protease stability score of 0.891.
Consider “SEDEEISKKIIERILETMRTGDEDIMEHLVDPDAKFHDEDHHDHGREAFRWWSEFVKRIAGHDKVEIRQQHVKFQGNKVILHTIVIQGNKIYELIIVMEKFDGRWSISTVHIR”, for which the protease stability score is 1.43.
The sequence “SEDEEIVHLAIEMYLESIRTGDWKLWEKLIDPDVRLEVNGVEFHGMEEFLKFEREINKRVDHVEVRLRDTRLVNGQVNLNTELINRYDGRTIITETTYVAIKVDGKWYIHEYRIE” came in with a protease stability score of 1.14.
“SEDEEIVKKMSKEELEFWRTGNEHELSKLFDPDVLLFVGEKIFHGREVFKHFKERVDHFHEFRDKHIQVIDGRIHIDSEVNSRFNGRQLSEDVRIQALKFDGRWHYKSIHML” gave a protease stability score of 0.336.
Consider “SEDEEIVRHFLEIWIKILKTGDWHSMERLVDPHAKYENEHEVDHGRDSARRFVDELRVTEFRVESVKTQGDKATVHTRMVVHFNGKRIDTETRLHIHKVDGRWVVEIIIVN”, for which the protease stability score came to 1.43.
For “SEDEEIWRRYAKEWYHNWSTGNFDRFKQLMDPDARFIYGDKELVGREEVLRRIRHLLEHLRFKRSEIKREHVVNGVLHLDVHEDGEQGDKSRRSDVEIILYVINGRLHTVEIRIE”, the protease stability score was determined as 1.61.
Take “SEDEEKAERLSRKVVHDLLTGDFKSLLEMFDPNVRVNINGVNNHGRHFFWHELYDELRRLGVDKIEVDLRSLQVYGDKVVLEMELRVNGKKITVEIHMKKVDGRWHIKEVTHE”: the protease stability score came to 1.04.
The sequence “SEDEEKASEVARRFVRSLATGDFDTLTRLMDPNYKHVYGDKEFVGREVIREHLEELRLHFEDNKVKHVRVIGDKIDTDMEVRFTVEFDGVRVHHEMKVEFRILKINGRWFLEFTIIR” displayed a protease stability score of 0.337.
“SEDEEKATEFFRLLVDNWLTGDEENVERLLDPRVRVLVGDKMIHGRHLSARLESEFLKRIPNLRIRFHLHDVRTYGDKAHLDIIIDIHFNGVDIHIESELVVVKIDGRWLFKEERRK” had a protease stability score of 0.276.
Take “SEDEEKATEMIEQLSRAILTGDEHTLHKLLDPRTRIVVNGRRIHGRELWLKFFRELRFHSDDMHIHSQEVQGDKAFFDVHWLGTRNINGVKEHSHTKTEVILLKYNGKWIVEELRYE”: the protease stability score is 2.17.
As for “SEDEEKLQHMTHLFIHLEITGDEKLWTELADPNVRLDINGVEYHGREHVLRSWVELGIKVMRLHRRTAQGDKMHLDGTIDFNGRRYRIHVDVKIIDGKLKDTKQHIE”, the figure is 2.17.
For the sequence “SEDEEKSHRFRRELLESLFTGDFDRFKELADPHVKVDINGRDIHGMELLVRIWRREEKEAGVNYTKDHDLKDHDIINGRAKIDIRVHGIFNGREQTVEVYIFSLKVDGRWILTFMKIN”, the protease stability score was 1.45.
For “SEDEEKSKRDAQHWFNNWLTGDWRRTLELADPHARIDINGKELHGMHESLELLTRLIEKLGVDHIEMKKSDVVGDKMHIHGHLDIDGQKRDLTIFLLIIDGRLKHSQFELT” the value was 0.165; for “SEDEEKTRKFIELFLYLWVTGDEDSLSELLDPNVRAEVNGKSAHGRDEVSKLSDVFMKELGVKHTRQTTQHRYEIQGDKLKSHLTIDIEVDGQNVKEFVVIVVEKINGRWIIRHIRFE”, 1.1.
Regarding “SEDEEKVFEHLQRITESFVTGDEDSFRHLLDPNVLFLINGRIFHGWEALHWELRRYDHHEVRVHVHHIDFINGRARSDIRLDLHLNFNGKQIDIHTETRVHAEKINGRWRLKRIDIE”, the protease stability score was 0.811.
With “SEDEELAESFSRLFFEAEETGDEESLLEMADPNVRVHIDGREIHGREEWIKHLRTFGVERIRIHMRHVEIQGDKLRLDLIVHQGDKTVRIEITIKKVDGRWVVHSIHWS”, the protease stability score was 0.868.
Consider “SEDEELAKEFAETMLHWEITGNEEAIRRNMDPNTKLDINGQHYIGRDDVLRVWHEIKKRLGVDHLEIHHIRVSVIGDKIRIEIDGHIRVNGREIETHIVIITEKINGKWIIRSMRYEFK”, for which the protease stability score is 1.24.
“SEDEELAKRIAKLWIELHLTGNEDTIKQLMDPRVLVRIHINGVDIHLHGREHVIRHHRETMKHLGWSKVHLELKDSKFIGEYLHMDVRMNVNGQEHHVELEIIVINGRMKEIRINIE”: the protease stability score is 2.02.
Sequence “SEDEELAQTFLELWVHFLRTGDESMLEQYIDPHARFKVGDKEDHGMKVFKDLLHHIRIEDFRVHHVEIRIVGEWIEIRMDITLHGRVDGVRDTKRVHVHINAEKYNGRWRIKELEIRHR” registered a protease stability score of 1.74.
As for “SEDEELARIIMHLLEHATKTGDERILRKLLDPHVKIRVNGKDLIGWEEEHRRHEKLGADHLHLELIFKDWEFVGDYIKVHGEMRVRVNQGDKTDERNYEVRFYLLKVNGRWILESIQIH”, the protease stability score worked out at 2.63.

For the origin of these results see the NTF2 design screens of Basanta et al. (2020).
